Columns and labels:
[1] = system: target mRNA encoding green fluorescent protein (GFP); assay: Protein expression assay: in vivo GFP regulation activity of antiswitches in yeast cells; format: cell-based, S. cerevisiae; settings: for theophylline concentration at which the antiswitch switches GFP expression (inhibits expression / decreases to background levels): theophylline concentration in the media, s8 is an "on" switch; for switching theophylline concentration compared with s1-4: modified lower-affinity theophylline aptamer
Protocol: (§1) Yeast cells were inoculated into synthetic complete media supplemented with the appropriate drop out solution and sugar source (2% raffinose, 1% sucrose) and grown overnight at 30° C. Cells were back diluted into fresh media to an OD600 of 0.1 and grown at 30° C. For assaying antiswitch activity, this fresh media contained appropriate concentrations of theophylline (Sigma), caffeine (Sigma), tetracycline (Sigma), or water (negative control) and expression was induced to a final concentration of 2% galactose, or an equivalent volume of water was added (noninduced control). After growing for three hours, the GFP and Venus levels were assayed on a Safire (Tecan) fluorescent plate reader set to the appropriate excitation (GFP-485 nm; Venus-515 nm) and emission (GFP-515 nm; Venus-[…]) wavelengths. For assaying the antiswitch temporal response, cells were back diluted into fresh media containing 2% galactose. After growing in inducing media for three hours, theophylline or water was added and fluorescence was monitored over time. Fluorescence was normalized for cell number by dividing relative fluorescence units (RFUs) by the OD600 of the culture.
The expression of antiswitches in S. cerevisiae was accomplished using a novel non-coding RNA (ncRNA) expression construct similar to a previously described system (Taira et al., Nucleic Acids Res 19, 5125-30 (1991)) (see FIG. 6). Briefly, the RNA to be expressed is cloned between two hammerhead ribozymes known to self-cleave in vivo (Samarsky et al., Proc Natl Acad Sci USA 96, 6609-14 (1999)). This dual hammerhead construct can be placed under the control of Pol II promoters, and when transcribed the flanking hammerhead ribozymes cleave out from the desired RNA at an efficiency greater than 99% (see FIG. 11). The construct enables creation of ncRNAs with defined 5′ and 3′ ends that are free of potentially interfering flanking sequences. Antiswitch s1 was expressed in this construct under control of a galactose-inducible (GAL1) promoter in yeast cells. A plasmid containing a yeast enhanced GFP (yEGFP) (Mateus et al., Yeast 16, 1313-23 (2000)) under the control of a GAL1 promoter was transformed into the same cells (FIG. 1a).

[2] = system: theophylline aptamer; settings: cited from earlier work
[3] = system: E. coli membrane; settings: cited from earlier work
[4] = system: yellow fluorescent variant protein (Venus) mRNA target; assay: Protein expression assay: in vivo Venus (YFP) regulation by antiswitches in yeast cells; format: cell-based, S. cerevisiae
Protocol: as §1
To illustrate this we introduced into cells two switches each responsive to a different effector molecule and each regulating the protein expression of a different mRNA target: s1, a theophylline responsive GFP regulator, and s9 (see FIG. 9), a tetracycline responsive yellow fluorescent variant protein (Venus) (Nagai et al., Nat Biotechnol 20, 87-90 (2002)) regulator (FIG. 5a). Changes in the targeting capabilities of these molecules were made by swapping out the antisense stem and switching aptamer stem while keeping the remainder of the aptamer module the same. Concurrent expression of these two antiswitches with a plasmid carrying both GFP and Venus allowed for an assay of the simultaneous regulation of gene expression by modular antiswitch design. […] Furthermore, the addition of both ligands decreased expression of both GFP and Venus. […]

[5] = system: GFP mRNA; assay: RNA quantification by qRT-PCR of antiswitch s1 and target mRNA; format: cell-based, S. cerevisiae
Protocol: Yeast cells were grown according to methods detailed in protein expression assays. Total RNA was extracted using standard acid phenol extraction procedures (Caponigro et al., Mol Cell Biol 13, 5141-8 (1993)). Briefly, cells were pelleted and frozen in liquid nitrogen. Pellets were resuspended in a 50 mM NaOAc (pH 5.2) and 10 mM EDTA buffer. Cells were lysed by the addition of SDS to a final concentration of 1.6% and equal volume of acid phenol. Solutions were kept at 65° C. with intermittent vortexing for 10 minutes. Following cooling on ice, the aqueous phase was extracted and further extraction was carried out with an equal volume of chloroform. RNA samples were ethanol precipitated and resuspended in water. Total RNA was quantified by OD260 readings. RNA samples were DNased (Invitrogen) according to manufacturer's instructions. cDNA was synthesized using gene-specific primers (see FIG. 13) and Superscript III reverse transciptase (Invitrogen) according to the manufacturer's instructions. qRT-PCR was performed on this cDNA using an iCycler iQ system (BioRAD). Samples were prepared using the iQ SYBR green supermix and primer pairs specific for different templates (see FIG. 13) on dilution series of the cDNA, according to the manufacturer's instructions. Data was analyzed using the iCycler iQ software.

[6] = Structural probing of antiswitch by nuclease mapping (RNase T1) with theophylline alone
Protocol: Antiswitch and target sequences were PCR amplified with primers containing a T7 polymerase promoter. RNA was transcribed using Ampliscribe T7 transcription kits (Epicentre) according to manufacture's instructions, except that transcription was carried out at 42° C. and for gel-shift assays antiswitches were radiolabeled by the addition of [α-^32P]-UTP to the transcription mix. The RNA was purified on a 15% denaturing gel, eluted, ethanol precipitated, and resuspended in water. RNA was quantified by OD260 readings. For nuclease mapping, antiswitches were 5′ end labeled with fluorescein (Molecular Probes) by incubating 25 μg of RNA with phosphate reactive label, dissolved in DMSO (Sigma), in labeling buffer (0.12 M methylimidazole pH 9.0, 0.16 M EDAC) for four hours, according to manufacturer's instructions. Labeled RNA was purified by ethanol precipitation and run on a 12% denaturing gel. Fluorescent bands were excised from the gel, eluted into water for three hours at 37° C., and ethanol precipitated.
For nuclease mapping, fluorescein-labeled antiswitch RNA was resuspended in buffer (50 mM Tris-HCl pH 8.0, 100 mM NaCl, 5 mM MgCl2), denatured at 65° C. for three minutes, and allowed to slow cool to room temperature. Antiswitch RNA was incubated with varying concentrations of theophylline at room temperature for 15 minutes. RNase T1 (Ambion) was added to the antiswitch-ligand mixture and incubated at room temperature for 15 minutes. Cleavage products were visualized using laser-induced fluorescence capillary electrophoresis on a P/ACE MDQ machine (Beckman) using a single-stranded nucleic acid analysis kit (Beckman) according to manufacturer's instructions.

[7] = cells with s1 and s9, plasmid carrying both GFP and Venus
[8] = theophylline and tetracycline, cells with s1 and s9

For “s8: redesigned "on" antiswitch regulator responsive to theophylline, SEQ ID NO: 8 (ACCUUUAGACAUUUAGAUACCAGCAUCGUCUUGAUGCCCUUGGCAGCUAAAUGUC; RNA, backbone not given here)”, which “theophylline concentration at which the antiswitch switches GFP expression (inhibits expression / decreases to background levels)” value [1] is on record?
The value was “around 1 mM”.

For `Cn1c(=O)c2c(ncn2C)n(C)c1=O` [caffeine], which “binding to the theophylline aptamer” value [2] is on record?
The value was “does not bind”.

Which Kd [2] does the source give for `Cn1c(=O)c2[nH]cnc2n(C)c1=O` [theophylline] here?
Its Kd is 290 nM.

What about the “drop in theophylline concentration across the E. coli membrane” value [3] of the same molecule?
The value was > 1,000 fold.

B1: s1: theophylline-responsive "off" antiswitch RNA targeting GFP mRNA, SEQ ID NO: 1 (nucleic acid)
chain: ACCUUUAGACAUUUACCUCUAAAUGUCUAAAGGUGAUACCAGCAUCGUCUUGAUGCCCUUGGCAGCACCUUUAG
modifications: chemistry not given here
Which results are given for B1?
GFP expression on addition of caffeine ([1]; caffeine as negative control effector): does not change expression levels; GFP expression on addition of theophylline [1, 7]: decreased; GFP expression on addition of both ligands [1, 8]: decreased; Venus expression on addition of theophylline [4, 7]: unaffected; relative levels of target transcript ([5]; cells harboring s1, absence versus high levels of theophylline): did not change significantly; steady-state relative level of antiswitch versus target levels ([5]; same promoter for antiswitch and target): approximately 1,000 fold; antisense domain (peak 1) RNase T1 cleavage ([6]; 2 mM theophylline): appearance of peak 1; switching aptamer stem (peak 2) RNase T1 cleavage ([6]; 2 mM theophylline): absent; switching aptamer stem (peak 2) RNase T1 cleavage ([6]; absence of theophylline and 200 μM theophylline): cleaved

B2: s2: destabilized antiswitch construct based on s1 (A21 to C), SEQ ID NO: 2 (nucleic acid)
chain: ACCUUUAGACAUUUACCUCUACAUGUCUAAAGGUGAUACCAGCAUCGUCUUGAUGCCCUUGGCAGCACCUUUAG
modifications: RNA, backbone not given here
Which “theophylline concentration at which the antiswitch switches GFP expression (inhibits expression / decreases to background levels)” value [1] does the source give for B2 here?
Its value is “greater than 0.2 mM”.

B3: s3: stabilized antiswitch construct, antisense stem five nucleotides longer than s1, SEQ ID NO: 3 (nucleic acid)
chain: ACCUUUAGACAUUUAAUUAACCUCUUAAUUAAAUGUCUAAAGGUGAAGAUACCAGCAUCGUCUUGAUGCCCUUGGCAGCUUCACCUUUAG
modifications: RNA, backbone not given here
For B3, which “theophylline concentration required to switch, relative to s1” value [1] is on record?
Its value is “roughly 1.5 fold”.

And the “theophylline concentration required to switch, relative to s2” value [1]?
The value was roughly 6 fold.

And the “decrease (inhibition) of GFP expression from control/full expression levels in the "off" state” value ([1]; absence of theophylline)?
The value was 10%.

And the “theophylline concentration at which the antiswitch switches GFP expression (inhibits expression / decreases to background levels)” value [1]?
Its value is “approximately 1.25 mM”.

B4: s4: destabilized antiswitch construct with altered loop sequence (U18 to C), SEQ ID NO: 4 (nucleic acid)
chain: ACCUUUAGACAUUUACCCCUACAUGUCUAAAGGUGAUACCAGCAUCGUCUUGAUGCCCUUGGCAGCACCUUUAG
modifications: RNA, backbone not given here
For B4, which “theophylline concentration at which the antiswitch switches GFP expression (inhibits expression / decreases to background levels)” value [1] is on record?
Its value is 0.1 mM.

B5: s5: antiswitch with aptamer domain having 10-fold lower affinity to theophylline than s1, SEQ ID NO: 5 (nucleic acid)
chain: ACCUUUAGACAUUUACCUCUAAAUGUCUAAAGGUGAUACCACGCGAAAGCGCCUUGGCAGCACCUUUAG
modifications: RNA, backbone not given here
Which results are given for B5?
theophylline concentration required to switch, relative to s1 [1]: ~10 fold; switching theophylline concentration compared with s1-4 [1]: higher theophylline concentrations; Kd of aptamer domain for theophylline relative to the aptamer used in s1 (higher Kd / lower affinity) [2]: ~10 fold

B6: s6: destabilized modified theophylline aptamer antiswitch based on s5, SEQ ID NO: 6 (nucleic acid)
chain: ACCUUUAGACAUUUACCUCUACAUGUCUAAAGGUGAUACCACGCGAAAGCGCCUUGGCAGCACCUUUAG
modifications: RNA, backbone not given here
For B6, which “switching theophylline concentration compared with s1-4” value [1] is on record?
The value was “higher theophylline concentrations”.

B7: s9: tetracycline-responsive Venus (YFP) regulator antiswitch, SEQ ID NO: 9 (nucleic acid)
chain: UUGCUCACCAUGGUCCUCACCAUGGUGAGCAAAAAACAUACCAGAUCGCCACCCGCGCUUUAAUCUGGAGAGGUGAAGAAUACGACCACCUUUGCUCAC
modifications: chemistry not given here
For B7, which “GFP expression on addition of tetracycline” value [1, 7] is on record?
The value was “not affecting”.

What about the “Venus expression on addition of tetracycline” value [4, 7] of the same molecule?
The value was “decreased”.

What about the “Venus expression on addition of both ligands” value [4, 8] of the same molecule?
Its value is “decreased”.
